Results on 1 molecule are retold here after US20100093623A1, “COMPOSITIONS AND METHODS FOR […]-LIKE RECEPTOR ACTIVITY AND USES THEREOF” (Burnham Institute for Medical Research, priority 2008, published 2010).

The target in this assay is T1, (His)6-NLRP1 (NLR family, pyrin domain-containing 1), purified recombinant full-length protein from Sf21 cells (human), Q9C000.
T1 chain: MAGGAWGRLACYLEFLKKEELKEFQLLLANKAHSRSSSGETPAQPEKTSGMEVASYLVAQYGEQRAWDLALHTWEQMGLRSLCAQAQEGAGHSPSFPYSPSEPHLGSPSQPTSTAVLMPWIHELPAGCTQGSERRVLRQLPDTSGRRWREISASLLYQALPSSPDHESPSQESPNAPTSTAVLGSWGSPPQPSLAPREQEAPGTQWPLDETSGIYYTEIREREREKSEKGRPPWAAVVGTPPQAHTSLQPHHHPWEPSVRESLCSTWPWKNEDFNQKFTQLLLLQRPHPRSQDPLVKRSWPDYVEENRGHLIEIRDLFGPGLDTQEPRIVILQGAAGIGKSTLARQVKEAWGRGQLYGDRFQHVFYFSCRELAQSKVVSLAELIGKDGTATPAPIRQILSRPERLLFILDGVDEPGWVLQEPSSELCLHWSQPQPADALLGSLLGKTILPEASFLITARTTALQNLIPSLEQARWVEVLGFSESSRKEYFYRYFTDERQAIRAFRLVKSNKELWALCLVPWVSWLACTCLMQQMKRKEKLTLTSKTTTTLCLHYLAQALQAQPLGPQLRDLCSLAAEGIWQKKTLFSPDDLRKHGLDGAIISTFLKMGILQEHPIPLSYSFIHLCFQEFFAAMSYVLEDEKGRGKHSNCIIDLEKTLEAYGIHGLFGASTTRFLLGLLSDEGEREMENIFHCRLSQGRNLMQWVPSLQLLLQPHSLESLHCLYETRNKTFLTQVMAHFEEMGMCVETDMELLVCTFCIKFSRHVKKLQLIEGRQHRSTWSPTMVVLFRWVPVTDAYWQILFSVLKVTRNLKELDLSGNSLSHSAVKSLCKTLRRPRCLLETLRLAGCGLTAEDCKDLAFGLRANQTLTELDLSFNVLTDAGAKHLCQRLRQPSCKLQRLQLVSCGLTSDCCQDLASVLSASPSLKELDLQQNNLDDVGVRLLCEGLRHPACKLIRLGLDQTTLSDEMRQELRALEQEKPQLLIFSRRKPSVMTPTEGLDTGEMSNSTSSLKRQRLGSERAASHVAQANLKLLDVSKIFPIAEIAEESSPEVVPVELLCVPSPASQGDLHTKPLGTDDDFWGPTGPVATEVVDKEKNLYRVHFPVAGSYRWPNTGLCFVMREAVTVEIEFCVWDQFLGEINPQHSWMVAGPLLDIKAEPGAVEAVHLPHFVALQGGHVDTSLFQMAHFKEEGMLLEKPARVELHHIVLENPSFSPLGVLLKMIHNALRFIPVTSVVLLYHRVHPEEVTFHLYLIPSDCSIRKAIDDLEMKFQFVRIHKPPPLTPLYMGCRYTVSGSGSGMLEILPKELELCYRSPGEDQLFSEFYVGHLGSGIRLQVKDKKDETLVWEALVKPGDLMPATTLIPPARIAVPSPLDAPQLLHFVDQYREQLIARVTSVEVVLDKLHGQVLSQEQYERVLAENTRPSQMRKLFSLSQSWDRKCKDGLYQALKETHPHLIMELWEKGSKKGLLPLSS
Nature of the assay: cell-based or functional assay.

B1: Bcl-2 Loop peptide 71-90 (synthetic 20'mer) (peptide)
peptide: PLQTPAAPGAAAGPALSPVP
modifications: not checked
Turning to B1, the IC50 (concentration to inhibit NLRP1-induced Caspase-1 activity by 50%) worked out at 9.92 nM.
